Substitutions are numbered along the chain they refer to. Names may count otherwise. Each block holds one binder with its values, some of them ahead of it.
How the values were obtained:
human TIGIT protein [1] = target: T1, human TIGIT protein (human, UniProt Q495A1 22-141, limits assumed); experiment: SPR, captured mAb
T1 construct: Recombinant protein (Genentech) used in ELISA screening and as SPR analyte; also called TIGIT antigen
T1 sequence: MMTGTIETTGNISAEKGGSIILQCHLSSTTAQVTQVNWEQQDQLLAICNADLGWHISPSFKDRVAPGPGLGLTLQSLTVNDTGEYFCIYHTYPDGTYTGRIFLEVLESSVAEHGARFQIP
Protocol: (§1) Briefly, a series S CM5 biosensor chip was activated with N-ethyl-N′-(3-dimethylaminopropyl)-carbodiimide hydrochloride (EDC) and N-hydroxysuccinimide (NHS) reagents according to the supplier's (GE Healthcare Biosciences, Piscataway, N.J.) instructions, and a human antibody capture kit was applied to couple goat anti-human Fc IgGs in order to achieve approximately 10,000 response units (RU) on each flow cell, followed by blocking un-reacted groups with 1M ethanolamine.
(§2) (flow rate: 30 μl/min) with no regeneration between injections. The sensorgrams were recorded and evaluated by BIAcore™ T200 Evaluation Software (version 2.0) after subtraction of reference cell signal. Association rates (kₒₙ) and dissociation rates (koff) were calculated using a simple one-to-one Langmuir binding model. The equilibrium dissociation constant (KD) was calculated as the ratio koff/kₒₙ.
(§3) The first humanized versions, h6B2, L1H1, h10A5.L1H1, h7E7, L1H1, and h15C8.L1H1, which contain both rat CDRs and framework residues at Vernier positions, and the fully humanized versions, h6B2.L2H5, h10A5.L4H4, h7E7.L5H9, and h15C8.L5H9, which contain only rat CDRs were subject to BIAcore affinity measurement by comparison with original rat antibodies, rat6B2, rat10A5, rat7E7 and rat 15C8. For binding affinity determinations of TIGIT antibodies against human TIGIT, cynomolgus monkey TIGIT and human alanine-scanned TIGIT mutants by single-cycle kinetics, Surface Plasmon Resonance (SRP) measurement with a BIACORE™-T200 instrument was used, as described above.

[2] = target: T2, cynomolgus monkey (cyno) TIGIT protein (cynomolgus monkey, UniProt A0A7N9I9V4 89-209); experiment: SPR, captured mAb
T2 sequence (A0A7N9I9V4 entry or part of it): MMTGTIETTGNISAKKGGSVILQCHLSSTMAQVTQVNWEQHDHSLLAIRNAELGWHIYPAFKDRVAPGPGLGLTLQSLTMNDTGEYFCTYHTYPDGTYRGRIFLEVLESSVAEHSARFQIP
Protocol: as §1, §2, §3

human TIGIT protein [3] = target: T1, human TIGIT protein; experiment: SPR, monovalent affinity
[4] = target: T2, cynomolgus monkey (cyno) TIGIT protein; experiment: SPR, monovalent affinity

B2: h15C8.L2H1 (antibody, V domains shown)
VH: EVQLVQSGAEVKKPGASVKVSCKASGYTFTEHSIYWLRQAPGQRLEIIGRIDPKNGRTYFVDKFKNRATLTTDTSASTAYMELSSLRSEDTAVYFCARIDGFYFDFWGQGTLVTVSS
VL: DIQLTQSPSFLSASVGDRVTITCKGSQNVNKYLVWYQQKPGKAPKLLIYSTDNLQSGVPSRFSGSGSGTEYTLTISSLQPEDFATYFCYQYNNGFTFGQGTKVEIK
notes: VL: I58V against h15C8.L1H1; FR/HVR pieces
- Kd (human TIGIT protein [1]): 0.66 nM
- koff (human TIGIT protein [1]): 0.000506 s⁻¹
- kon (human TIGIT protein [1]): 771000 M⁻¹ s⁻¹
- Kd [2]: 1 nM
- koff [2]: 0.000502 s⁻¹
- kon [2]: 502000 M⁻¹ s⁻¹

B3: h15C8.L1H7 (antibody, V domains shown)
VH: B2 VH with T72R
VL: B2 VL with V58I
notes: VH: T71R against h15C8.L1H1; FR/HVR pieces
- Kd (human TIGIT protein [1]): 0.98 nM
- koff (human TIGIT protein [1]): 0.000597 s⁻¹
- kon (human TIGIT protein [1]): 610000 M⁻¹ s⁻¹
- Kd [2]: 0.94 nM
- koff [2]: 0.000206 s⁻¹
- kon [2]: 219000 M⁻¹ s⁻¹

B4: h15C8.L1H2 (antibody, V domains shown)
VH: B2 VH with L37V
VL: B2 VL with V58I
notes: VH: L37V against h15C8.L1H1; FR/HVR pieces
- Kd (human TIGIT protein [1]): 1.03 nM
- koff (human TIGIT protein [1]): 0.00107 s⁻¹
- kon (human TIGIT protein [1]): 1.04e+06 M⁻¹ s⁻¹
- Kd [2]: 2.1 nM
- koff [2]: 0.000806 s⁻¹
- kon [2]: 382000 M⁻¹ s⁻¹

B8: h15C8.L1H5 (antibody, V domains shown)
VH: B2 VH with A68V
VL: B2 VL with V58I
notes: VH: A67V against h15C8.L1H1; FR/HVR pieces
- Kd (human TIGIT protein [1]): 0.71 nM
- koff (human TIGIT protein [1]): 0.000567 s⁻¹
- kon (human TIGIT protein [1]): 798000 M⁻¹ s⁻¹
- Kd [2]: 1.15 nM
- koff [2]: 0.000558 s⁻¹
- kon [2]: 484000 M⁻¹ s⁻¹

B10: 7.4A3.Q1E.C96 (antibody, V domains shown)
VH: EVQLVQSGSDLKKPGASVRVSCKASGYTFTSYPMNWVRQAPGHGLEWMGWINTNTGNPTYVQGFTGRFVFSLDTSVNTAYLQISSLKAEDTAVYFCARTGGHTYDSYAFDVWGQGTMVTVSS
VL: DIQLTQSPTFLSASVGDRVTITCRASQVISSSLAWYQQNPGKAPKLLIYAASTLQSGVPSRFSGSGSGTEFTLTISSLQPEDFVTYYCQHLHGYPCNFGQGTKVEIK
notes: built from its name as 7.4A3 with Q1E in VH and C96 kept in VL
- Kd (human TIGIT protein [3]): 3.45 nM
- Kd [4]: 2.09 nM

B11: 4.1A4.Q1E.C96 (antibody, V domains shown)
VH: EVQLVQSGSELKKPGASVKVSCKASGYTLTNYPMNWVRQAPGRGLEWMGWINTNTGSPAYAQDFTERFVFSLDTSVTTAYLQISSLKAEDTAVYYCARTAITSVYHFDYWGQGTLVTVSS
VL: DIQLTQSPSFLSASVGDRVTITCRASQGISSYLAWYQQKPGKAPRVLIYGATTLQSGVPSRFSGSESGTEFTLTISSLQPEDLATYYCQKLNSHPCSFGQGTKVEIK
notes: built from its name as 4.1A4 with Q1E in VH and C96 kept in VL
- Kd (human TIGIT protein [3]): 3.6 nM
- Kd [4]: 2.4 nM

B12: h10A5.L4H4 (antibody, V domains shown)
VH: EVTLKESGPALVKPTQTLTLTCTFSGFSLTTYGMGVSWIRQPPGKALEWLASIWWNGNTYYNPSLRSRLTITKDTSKNQVVLTMTNMDPVDTATYYCAHTGGAVITWFAYWGQGTLVTVSS
VL: EIVMTQSPATLSVSPGERATLSCKASQSVGKNIAWYQQKPGQAPRLLIYYASNRYTGIPARFSGSGSGTEFTLTISSLQSEDFAVYYCQHIYNSPYPFGQGTKVEIK
notes: Fully humanized version; FR/HVR pieces in order
- Kd (human TIGIT protein [1]): 0.44 nM
- koff (human TIGIT protein [1]): 0.00227 s⁻¹
- kon (human TIGIT protein [1]): 5.21e+06 M⁻¹ s⁻¹
- Kd [2]: 0.85 nM
- koff [2]: 0.00129 s⁻¹
- kon [2]: 1.52e+06 M⁻¹ s⁻¹

Results, then the binder that gave them:

- Kd (human TIGIT protein [1]): 0.35 nM
- koff (human TIGIT protein [1]): 0.000648 s⁻¹
- kon (human TIGIT protein [1]): 1.85e+06 M⁻¹ s⁻¹
- Kd [2]: 0.44 nM
- koff [2]: 0.000284 s⁻¹
- kon [2]: 641000 M⁻¹ s⁻¹
B1: h7E7.L1H6 (antibody, V domains shown)
VH: B2 VH with H32Y, L37V, F60Y, T72R, A97T, D100Y
VL: B2 VL with S50N, V58I
notes: VH: A71R against h7E7.L1H1; FR/HVR pieces

- Kd (human TIGIT protein [1]): 0.4 nM
- koff (human TIGIT protein [1]): 0.00129 s⁻¹
- kon (human TIGIT protein [1]): 3.24e+06 M⁻¹ s⁻¹
- Kd [2]: 0.4 nM
- koff [2]: 0.000359 s⁻¹
- kon [2]: 898000 M⁻¹ s⁻¹
B5: h7E7.L1H5 (antibody, V domains shown)
VH: B2 VH with H32Y, L37V, F60Y, L70I, T72A, A97T, D100Y
VL: B2 VL with S50N, V58I
notes: VH: L69I (printed L691) against h7E7.L1H1; FR/HVR pieces

- Kd (human TIGIT protein [1]): 0.38 nM
- koff (human TIGIT protein [1]): 0.000421 s⁻¹
- kon (human TIGIT protein [1]): 1.12e+06 M⁻¹ s⁻¹
- Kd [2]: 1.03 nM
- koff [2]: 0.000613 s⁻¹
- kon [2]: 596000 M⁻¹ s⁻¹
B6: h15C8.L5aH9a (antibody, V domains shown)
VH: B2 VH with I48M, L70I, F95Y
VL: B2 VL with F87Y
notes: Final humanized 15C8; keeps rat VH I47, L37, A67, T71 and VL Y71; FR/HVR pieces

- Kd (human TIGIT protein [1]): 0.32 nM
- koff (human TIGIT protein [1]): 0.00104 s⁻¹
- kon (human TIGIT protein [1]): 3.21e+06 M⁻¹ s⁻¹
- Kd [2]: 0.56 nM
- koff [2]: 0.000324 s⁻¹
- kon [2]: 575000 M⁻¹ s⁻¹
B7: h7E7.L5H1 (antibody, V domains shown)
VH: B2 VH with H32Y, L37V, F60Y, T72A, A97T, D100Y
VL: B2 VL with S50N, Y71F, F87Y
notes: VL: I58V, Y71F, F87Y against h7E7.L1H1; FR/HVR pieces

- Kd (human TIGIT protein [1]): 0.31 nM
- koff (human TIGIT protein [1]): 0.000849 s⁻¹
- kon (human TIGIT protein [1]): 2.74e+06 M⁻¹ s⁻¹
- Kd [2]: 0.43 nM
- koff [2]: 0.000286 s⁻¹
- kon [2]: 664000 M⁻¹ s⁻¹
B9: h7E7.L1H7 (antibody, V domains shown)
VH: B2 VH with H32Y, L37V, F60Y, T72A, F95Y, A97T, D100Y
VL: B2 VL with S50N, V58I
notes: VH: F91Y against h7E7.L1H1; FR/HVR pieces

Source: US20220064286A1 (Genentech, published 2022)
